Values belong to the molecule of their own block, whether it stands above or below them.
What was measured:
[1] = Lipid moisture level; type: physicochemical; conditions: after vacuum at room temperature for 48 hours
Description: The moisture level of the lipid, e.g., DOPC, […], or DMPC, is measured after vacuum at room temperature for 48 hours. Lipid vehicles with lower moisture level can be included in viscous liquid compositions.

[2] = ω-Interferon solubility in non-aqueous liquid solvents; type: physicochemical
Excerpt: Thirteen non-aqueous liquid solvent candidates were identified to develop a solution formulation or a suspension formulation based on solubility of ω-interferon. The solvents at the top, e.g., lauryl lactate, are potential suspension solvents. The character of the solvents changes to potential solution solvents in combination with ω-interferon, e.g., glycerol formal, benzyl benzoate, DMSO, or glycerin.

[3] = solvent 1:1 benzyl benzoate:benzyl alcohol, expected conc 10.00 mg/ml
[4] = solvent NMP, expected conc 25.00 mg/ml
[5] = solvent PEG 400, expected conc 25.00 mg/ml
[6] = solvent benzyl alcohol, expected conc 10.00 mg/ml
[7] = solvent ethanol, expected conc 25.00 mg/ml
[8] = solvent ethyl hexyl lactate, expected conc 10.00 mg/ml

Avg. Moisture [1]: 0.6%
Molecule: CCCCCCCCCCCCCC(=O)OC[C@H](COP(=O)([O-])OCC[N+](C)(C)C)OC(=O)CCCCCCCCCCCCC [DMPC, dimyristoylphosphatidylcholine]

Avg. Moisture [1]: 0.6 ± 0.2%
Molecule: CCCCCCCC/C=C\CCCCCCCC(=O)OC[C@H](COP(=O)([O-])OCC[N+](C)(C)C)OC(=O)CCCCCCC/C=C\CCCCCCCC [DOPC, 1,2-Dioleoyl-sn-glycero-3-phosphatidylcholine]

Molecule: ω-interferon
solubility ([2]; in the solvents that were combined with DOPC to form suspensions): less than 0.1 mg/mL | Concentration by SEC [2, 3]: 0 ng/mL | Concentration by UV [2, 3]: <100 µg/mL | Concentration by rp-HPLC [2, 3]: 0.00 | Concentration by SEC [2, 4]: 0 ng/mL | Concentration by UV [2, 4]: <100 µg/mL | Concentration by rp-HPLC [2, 4]: 0.00 | Concentration by SEC [2, 5]: 0 ng/mL | Concentration by UV [2, 5]: <100 µg/mL | Concentration by rp-HPLC [2, 5]: 0.00 | Concentration by SEC [2, 6]: 0 ng/mL | Concentration by UV [2, 6]: 140 µg/mL | Concentration by rp-HPLC [2, 6]: 0.00 | Concentration by SEC [2, 7]: 0 ng/mL | Concentration by UV [2, 7]: <100 µg/mL | Concentration by rp-HPLC [2, 7]: 0.00 | Concentration by SEC [2, 8]: 0 ng/mL | Concentration by UV [2, 8]: 370 µg/mL | Concentration by rp-HPLC [2, 8]: 0.00 | Concentration by UV ([2]; solvent lauryl alcohol, expected conc 10.00 mg/ml): <100 µg/mL | Concentration by UV ([2]; solvent lauryl lactate, expected conc 10.00 mg/ml): <100 µg/mL
